Results reported in patent US20240132624A1 (Ablynx, published 2024).

Legend:
Assay in all cases: SPR pH 6.0
human FcRn/b2M [1] = target: T1, human FcRn/b2M (human, UniProt P61769 21-119, biotinylated)
T1 construct: bought recombinant biotinylated protein (ACRO FCM-H82W4 or Immunitrack ITF01); also called hFcRn; hFcRn/hb2M

human FcRn/b2M [2] = target: T1, human FcRn/b2M; remark: listed apart in the source
cyno FcRn/b2M = target: T2, cyno FcRn/b2M (cyno, UniProt Q8SPV9 24-297; Q8SPW0 21-119, biotinylated)
T2 construct: bought recombinant biotinylated protein (Immunitrack ITF05 or ACRO FCM-C82W5); also called cFcRn; cFcRn/cb2M
T2 sequence (Q8SPV9 24-297 limits assumed, chain 1 of 2): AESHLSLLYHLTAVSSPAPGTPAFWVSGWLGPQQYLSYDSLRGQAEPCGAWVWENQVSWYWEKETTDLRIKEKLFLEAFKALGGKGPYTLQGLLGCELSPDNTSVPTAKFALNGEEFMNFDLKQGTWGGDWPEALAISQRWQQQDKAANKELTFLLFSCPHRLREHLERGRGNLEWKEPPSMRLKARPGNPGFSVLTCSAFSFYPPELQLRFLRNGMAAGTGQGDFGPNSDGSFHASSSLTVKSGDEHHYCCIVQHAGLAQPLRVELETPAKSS
T2 sequence (Q8SPW0 21-119 limits assumed, chain 2 of 2): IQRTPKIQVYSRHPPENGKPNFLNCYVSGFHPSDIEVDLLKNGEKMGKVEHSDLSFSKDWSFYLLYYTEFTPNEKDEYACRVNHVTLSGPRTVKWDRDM

Row | Binder | koff (human FcRn/b2M [1]) [s⁻¹] | Kd (human FcRn/b2M [2]) [nM] | Kd (cyno FcRn/b2M) [nM]
1 | T026301098 (VHH, name in Kabat numbering, tagless; also called T0263018B11 S31D) VHH: EVQLVESGGGVVQPGGSLRLSCAASGFTFSDYAMYWVRQAPGKGLEWVSAISSGGGSTDYADSVKGRFTISRDNSKNTLYLQMNSLRPEDTALYYCAADTLYTSLTWYSYWGQGTLVTVSS | 0.013 | 200 | 140
2 | T026301117 (VHH, name in Kabat numbering, tagless) VHH: EVQLVESGGGVVQPGGSLRLSCAASGFTFSEYAMYWVRQAPGKGLEWVSAISSGGGSTDYADSVKGRFTISRDNSKNTLYLQMNSLRPEDTALYYCAADTLYTSLTSYSYWGQGTLVTVSS | 0.0067 | 170 | 110
3 | T026301069 (VHH, name in Kabat numbering, tagless) VHH: EVQLVESGGGVVQPGGSLRLSCAASGFTFSSYDMYWVRQAPGKGLEWVSAISQGGGSTDYADSVKGRFTISRDNSKNTLYLQMNSLRPEDTALYYCAADTLYTSLTSYSYWGQGTLVTVSS |  |  | 23
4 | T026301087 (VHH, name in Kabat numbering, tagless) VHH: EVQLVESGGGVVQPGGSLRLSCAASGFTFSEYDMYWVRQAPGKGLEWVSAISQGGGSTDYADSVKGRFTISRDNSKNTLYLQMNSLRPEDTALYYCAADTLYTSLTWYSYWGQGTLVTVSS | 0.0011 | 25 | 20
5 | T026301070 (VHH, name in Kabat numbering, tagless) VHH: EVQLVESGGGVVQPGGSLRLSCAASGFTFSEYDMYWVRQAPGKGLEWVSAISQGGGSTDYADSVKGRFTISRDNSKNTLYLQMNSLRPEDTALYYCAADTLYTSLTSYSYWGQGTLVTVSS | 0.0046 | 150 | 140
6 | T026301091 (VHH, name in Kabat numbering, tagless) VHH: EVQLVESGGGVVQPGGSLRLSCAASGFTFSEYDMYWVRQAPGKGLEWVSAISSGGGSTDYADSVKGRFTISRDNSKNTLYLQMNSLRPEDTALYYCAADTLYTSLTSYSYWGQGTLVTVSS | 0.0062 | 250 | 160
7 | T026301100 (VHH, name in Kabat numbering, tagless) VHH: EVQLVESGGGVVQPGGSLRLSCAASGFTFSSYDMYWVRQAPGKGLEWVSAISQGGGSTDYADSVKGRFTISRDNSKNTLYLQMNSLRPEDTALYYCAADTLYTDLTWYSYWGQGTLVTVSS | 0.0039 | 140 | 98
8 | T026301076 (VHH, name in Kabat numbering, tagless) VHH: EVQLVESGGGVVQPGGSLRLSCAASGFTFSSYDMYWVRQAPGKGLEWVSAISQGGGSTDYADSVKGRFTISRDNSKNTLYLQMNSLRPEDTALYYCAADTLYTSLTKYSYWGQGTLVTVSS | 0.003 | 120 | 37

Further lines, results first:

Row | koff (human FcRn/b2M [1]) [s⁻¹] | Kd (human FcRn/b2M [2]) [nM] | Kd (cyno FcRn/b2M) [nM] | Binder
9 | 0.016 | 390 | 260 | T026301057 (VHH, name in Kabat numbering, tagless) VHH: EVQLVESGGGVVQPGGSLRLSCAASGFTFSEYAMYWVRQAPGKGLEWVSAISQGGGSTDYADSVKGRFTISRDNSKNTLYLQMNSLRPEDTALYYCAADTLYTSLTSYSYWGQGTLVTVSS
10 | 0.0051 | 150 | 130 | T026301080 (VHH, name in Kabat numbering, tagless) VHH: EVQLVESGGGVVQPGGSLRLSCAASGFTFSSYDMYWVRQAPGKGLEWVSAISSGGGSTDYADSVKGRFTISRDNSKNTLYLQMNSLRPEDTALYYCAADTLYTSLTSYSYWGQGTLVTVSS
11 | 0.005 | 62 | 41 | T026301063 (VHH, name in Kabat numbering, tagless) VHH: EVQLVESGGGVVQPGGSLRLSCAASTFTFSSYAMYWVRQAPGKGLEWVSAISQGGGSTDYADSVKGRFTISRDNSKNTLYLQMNSLRPEDTALYYCAADTLYTSLTWYSYWGQGTLVTVSS
12 |  | 30 |  | T026301099 (VHH, name in Kabat numbering, tagless) VHH: EVQLVESGGGVVQPGGSLRLSCAASGFTFSEYDMYWVRQAPGKGLEWVSAISSGGGSTDYADSVKGRFTISRDNSKNTLYLQMNSLRPEDTALYYCAADTLYTSLTWYSYWGQGTLVTVSS
